Experimental data as given in patent US7259254B2, “Mutants and assay system to identify USP/RXR ligands” (University of Kentucky Research Foundation, priority 2002, dated 2007).
Where a chain is given by its changes, count along the chain named. Numbers in names are those of the source. Entries after “also recorded” stand apart in the source; their conditions may differ.

T1: His-tagged wild-type dUSP (Drosophila melanogaster, UniProt P20153)
T1 construct: His tag; made in house; host or cells: bacteria (pET32EK vector)
T1 sequence (P20153 1-508): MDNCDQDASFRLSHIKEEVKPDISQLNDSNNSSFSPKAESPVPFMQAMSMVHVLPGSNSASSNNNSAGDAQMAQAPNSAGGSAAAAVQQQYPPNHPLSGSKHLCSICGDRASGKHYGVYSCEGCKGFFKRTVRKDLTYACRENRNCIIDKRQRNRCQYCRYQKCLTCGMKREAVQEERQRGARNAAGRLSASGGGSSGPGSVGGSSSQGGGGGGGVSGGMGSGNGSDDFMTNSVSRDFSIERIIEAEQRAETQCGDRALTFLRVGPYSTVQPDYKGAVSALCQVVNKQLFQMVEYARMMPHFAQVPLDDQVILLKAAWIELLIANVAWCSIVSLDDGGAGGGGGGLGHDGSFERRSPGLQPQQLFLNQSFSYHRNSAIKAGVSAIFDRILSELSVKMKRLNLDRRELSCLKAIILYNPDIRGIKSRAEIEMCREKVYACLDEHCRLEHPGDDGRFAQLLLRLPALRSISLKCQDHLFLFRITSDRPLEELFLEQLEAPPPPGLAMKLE

B1: C472A/H475L: dUSP ligand-binding pocket double mutant, alanine at 472 and leucine at 475 (protein)
chain: T1 sequence (P20153 1-508) with C472A, H475L
B2: wild-type dUSP: wild type Drosophila melanogaster Ultraspiracle receptor, SEQ ID NO: 2 (protein)
chain: T1 sequence (P20153 1-508)
modifications: Drosophila melanogaster
B3: P498W/P499W/W318F: USP mutant, tryptophan at 498 and 499, phenylalanine at 318 (protein)
chain: T1 sequence (P20153 1-508) with W318F, P498W, P499W
B4: W318F/W328F: USP mutant, phenylalanine at positions 318 and 328 (protein)
chain: T1 sequence (P20153 1-508) with W318F, W328F
B5: P498W/P499W/W318F/W328F: USP mutant, tryptophan at 498 and 499, phenylalanine at 318 and 328 (protein)
chain: T1 sequence (P20153 1-508) with W318F, W328F, P498W, P499W
B6: W318F: USP mutant, phenylalanine at position 318 (protein)
chain: T1 sequence (P20153 1-508) with W318F
B7: Q288A: dUSP mutant, Gln288 mutated to alanine (protein)
chain: T1 sequence (P20153 1-508) with Q288A
B8: W328F: USP mutant, phenylalanine at position 328 (protein)
chain: T1 sequence (P20153 1-508) with W328F
B9: P498W/P499W: USP mutant, two prolines at end of α-helix 12 replaced with tryptophan (protein)
chain: T1 sequence (P20153 1-508) with P498W, P499W

These molecules were tested on DR12 motif (assay: Electrophoretic mobility shift assay of recombinant dUSP on DR12 probe). Settings: 500 nm His-tagged receptor.
Format: binding
Source text: Nuclear extracts were isolated from Sf9 cells as previously described Jones et al. (2001) Insect Biochem. Mol. Biol. 32, 33-49; Jones et al (1998) Biochem. J. 335, 79-84; 79-84; Jones et al. (2000) Biochem. J. 346, 233-240. For the DR12 probe, the double stranded DR12 oligonucleotide (sequence as shown above) was 5′ end-labelled with ^32P by T4 polynucleotide kinase (New England Biolabs Inc.), and then purified from a 20% native polyacrylamide gel. The same double stranded DR12 oligonucleotide was used in 100-fold excess as a self competitor. For the 4DR12Core probe, the 4DR12Core sequence was liberated from the vector as a 148-bp ClaI/HindIII fragment, and was 5′ end-labelled with ^32P and purified. The same, unlabelled fragment was used at 100-fold excess as a self competitor. As a negative control for specificity in gel shifts, the 36 bp BglII/KpnI polylinker region fragment of the pGL3 vector was liberated and recovered from low melting point agarose gels and used as a 100 nonself competitor (sequence: […], SEQ ID NO: 17). […]
In addition, both receptor preparations bound to the probe similarly in part as monomer and in part as homodimer. […] Thus, any difference detected in ligand binding of the two receptors is most reasonably inferred as arising from differences in the architecture inside the cavity of the ligand-binding pocket due to the C472A/H475L point mutations.

Question: Which “binding to DR12 motif in gel shift” value does the source give for B1 here?
Answer: Its value is “similarly bound to a DR12 motif”.

Question: Which “binding to DR12 motif in gel shift” value does the source give for B2 here?
Answer: The value was “similarly bound to a DR12 motif”.

What follows are molecules tested on 4DR12Core reporter promoter in Sf9 cells (endogenous USP) (assay: Dominant negative activity of transfected dUSP mutants on methyl epoxyfarnesoate activation of 4DR12Core reporter in Sf9 cells). Settings: Table 1, mutants envisioned.
Format: cell-based, Spodoptera frugiperda
Source text: In another embodiment, mutant nuclear hormone receptors disclosed herein comprise amino acid substitutions that render the mutant to act as a “dominant negative.” Dominant negative proteins exploit protein-protein interactions, i.e., the interactions between a mutated protein produced by a transgene and the related native protein inside the cell. The mutant protein forms a dimer with an integral part of a wild type endogenous protein molecule. The mutant protein interacts with a whole range of native compatible gene products. Preferably, the mutant homodimerizes or heterodimerizes with an endogenous wild type partner to form a complex following ligand or independent of ligand binding. Preferably, as opposed to a complex of wild type monomers, a complex of a mutant and its endogenous wild type partner will be incapable of initiating transcription at a hormone receptor response reporter gene. Assays for determining dominant negative activity may be found in Examples 6 and 7 as well as FIG. 4.
Spodoptera frugiperda cell line, Sf9, was maintained and transfected as described previously Jones et al (1998) Biochem. J. 335, 79-84; Jones et al. (2000) Biochem. J. 346, 233-240. As an internal control to compare activities of different constructs, 0.3 μg of a constituitive heat-shock promoter-driven β-galactosidase gene was cotransfected. To study the role of USP in activation of the nuclear hormone receptor response element fused to core promoter in methyl epoxyfarnesoate-treated cells, cloned D. melangaster USP (dUSP) cDNA and its derivatives containing mutations in the ligand-binding pocket were cotransfected with the reporter and internal control plasmids. […] After 48 h of the treatment, the cells were harvested and the activity of the luciferase reporter was measured using a luciferase assay kit (Promega) in a multipurpose scintillation counter (Beckman, Fullerton, Calif.). β-Galactosidase activity was measured using chlorophenol red-[…] monosodium (CPRG; Roche Molecular Biochemicals) as a colorimetric substrate.
His-tagged dUSP dominant negative double mutant Cys472Ala/His475Leu (C472A/H475L) was over expressed in methyl epoxyfarnesoate-treated Sf9 cells that were cotransfected with the 4DR12Core reporter plasmid.
Under the model that overexpression of the C472A/H475L double mutant competed with endogenous USP in the pathways for transduction of the exogenous methyl epoxyfarnesoate signal, the level of effect of the double mutant ought to be dependent on its dose. […] This background of the blocked activation pathway was used to test whether activation by methyl epoxyfarnesoate treatment was actually dependent on the presence of wild-type USP. […] Again, over the range of the monotonic restoration of methyl epoxyfarnesoate-activated transcription, there was no effect of the transfected wild-type dUSP on the basal level of transcription in EtOH-treated controls.

Question: How did the “Dominant Negative Activity” value turn out when B3 was run?
Answer: The value was “Weak Activity”.

Question: For B4, which “Dominant Negative Activity” value is on record?
Answer: The value was “Weak Activity”.

Question: Which “Dominant Negative Activity” value does the source give for B5 here?
Answer: Its value is “Weak Activity”.

Question: B6 was tested. Which “Dominant Negative Activity” value did it give?
Answer: The value was “Weak Activity”.

Same assay, conditions: receptor overexpressed in Sf9 cells, 75 μm methyl epoxyfarnesoate

Question: For B1, which “dominant negative effect on methyl epoxyfarnesoate-induced activation of 4DR12Core promoter” value (shortened to “dominant negative effect”) is on record?
Answer: Its value is “distinct suppression; also recorded: progressive suppression”.

Question: For B7, which “dominant negative effect” value is on record?
Answer: Its value is “acted as a dominant negative suppressor”.

Question: How did the “dominant negative effect” value turn out when B8 was run?
Answer: Its value is “not a dominant negative”.

Question: B6 was tested. Which “dominant negative effect” value did it give?
Answer: The value was “weak dominant negative”.

Question: How did the “dominant negative effect” value turn out when B9 was run?
Answer: Its value is “not a dominant negative”.

Each molecule was assayed against T1, His-tagged wild-type dUSP (assay: Intrinsic tryptophan fluorescence ligand-binding assay, wild-type dUSP). Settings: excitation 290 nm, emission 340 nm; 0.5 μm receptor.
Description: The homodimer-enriched fraction of bacterial recombinant His-dUSP fusion protein was purified by nickel resin selection, elution with imidazole, centrifugal concentration, and then gel permeation chromatography (Superdex 200) with procedures and chemical sources exactly as already described previously Jones et al. (2000) Insect Biochem. Mol. Biol. 30, 671-679. The homodimer-enriched fraction of the purified His-USP fusion protein was raised to 2 ml of NaCl and a final concentration of 0.5 μm. For a fluorescence-based ligand-binding assay based on intrinsic tryptophan fluorescence Jones et al. (2001) Insect Biochem. Mol. Biol. 32, 33-49; Jones et al (1998) Biochem. J. 335, 79-84; 79-84; Jones et al. (2000) Biochem. J. 346, 233-240; Jones et al (1997) Proc. Natl. Acad. Sci. USA 94, 13499-13503, ligand or ethanol carrier was added and the receptor preparation excited at 290 nm and monitored for emission at 340 nm, until the signal from the receptor had stabilized. Fluorescence was measured three times for each sample, with standard deviation typically smaller than the graphical plotted datum point. Each fluorescence experiment was replicated on three or more independent occasions, each time with similar results.
The ability of the wild-type dUSP and dominant negative, ligand-binding pocket mutant dUSP to bind methyl epoxyfarnesoate was tested.

Question: With `CC(C)=CCCC(C)=CCCC(C)=CCO` [farnesol] as the molecule, how does the “effect on receptor intrinsic fluorescence (ligand binding), wild-type dUSP” value read?
Answer: Its value is “do not have that effect”.
